Test results as given in patent publication US20260077028A1.
Values joined by “and” are separate entries in the source; they are usually repeats but may differ in a detail not shown here. Equal entries are not always repeated.

Tests used:
[1] = molecular target: T1, human DEspR (dual endothelin/VEGF signal peptide receptor) (human) (UniProt B0L3A2); test: binding to DEspR on intact human cells, triplicate
T1 sequence: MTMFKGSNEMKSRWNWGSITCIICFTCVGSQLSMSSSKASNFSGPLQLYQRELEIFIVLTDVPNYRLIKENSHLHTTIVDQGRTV

[2] = molecular target: DEspR on activated neutrophils (species of the neutrophils not stated for FIG. 6 / FIG. 17C); test: cell-based or functional assay

EC50 [1]: 178 nM
B1: 6g8 mumab, murine anti-DEspR monoclonal antibody (pan-species reactive anti-Human/Rat/Monkey DEspR mAb), precursor of hu-6g8 (antibody, from a related filing, V domains shown)
VH: EVQLQESGGGLVQPGGSLKLSCAASGFDFSRYWMSWVRQAPGKGLEWIGEINPDSSTINYTPSLKDKFIISRDTAKKTLYLQMSKVRSEDTALYYCARHGRGMDYWSQGTSVTVSS
VL: DIVLTQTNQIMSASVGDRVSVTCKASQNVDSNVAWYQQKPGHSPKALIYSASYRYSRVPDRITGSGSGTDFTLTITNVQSKDLADYFCQQYHSYPLLAFGAGTKLELKR
inhibition of neutrophil (PMN) survival (IC50) [2]: > 198 nM
inhibition of survival (IC50), live cells counted by Trypan blue dye exclusion [2]: > 200 nM and > 30 µg/mL
